From patent publication US8236761B2, “C-Met receptor regulation by angiotensin IV (AT4) receptor ligands” (Washington State University Research Foundation, priority 2006, dated 2012)
Non-standard residues stand in square brackets, D forms with d. No end group written: not given here. Nle = CCCC[C@H](N)C(=O)O

Tests used:
B16-F10 melanoma cells = experiment: In vivo pulmonary B16-F10 melanoma metastasis model; set-up: species or system C57BL/6 mice; details: tail vein inoculation, IP 50 μg/kg/day, fourteen days, melanin absorbance
Description: (FIG. 13A) C57BL/6 mice were inoculated subcutaneously with B16-F10 cells. Control or Norleual-containing slow release Elvax pellets were implanted inter-muscularly. Tumors were measured with digital calipers and tumor volumes were calculated (n=6), error bars indicate ±SD. (FIG. 13B) 400,000 B16-F10 cells, treated in suspension with either Norleual at 10^−11 M or PBS as a vehicle control, were injected into the tail vein of C57BL/6 mice. Mice received IP injections of Norleual (50 μg/kg/day) or PBS vehicle control. After fourteen days, lungs were removed and the absorbance of melanin was used to quantify metastasis; bars show (left to right) graft recipients treated with vehicle only, Norelual treated graft recipients, and ungrafted age-matched control. Error bars indicate±SEM, with n=5 and *p<0.05. (FIG. 13C) Photo of representative lungs from vehicle-only treated (controls, “Norleal −”) and Norleual treated (“Norleual +”) grafted mice.
In vivo metastasis. Six to eight month old C57BL/6 mice were injected with 400 000 B16-F10 cells in 200 μl PBS by tail vein injection. Two to three weeks later, mice were anesthetized and lungs were perfused with PBS and removed. […] The supernate was transferred to a 96 well plate and melanin absorbance at 410 nm was measured using a plate reader (Biotek Synergy2, Winooski, Vt., USA). […]

[1] = test system: +SA murine mammary cancer cells; experiment: Angiogenesis-related gene microarray of +SA murine mammary tumors; format: in vivo, Balb/c mice; details: 28 days intraperitoneal osmotic pump, 1 mg/kg/day
Description: Angiotensin-like factor Norleual (COMPOUND 2) was tested for its ability to modulate angiogenic genes in murine mammary tumors. Briefly, Balb/c mice grafted with +SA murine mammary cancer cells were treated with Compound 2. After 28 days of intraperitoneal administration via an osmotic pump (at a dose of 1 mg/kg/day), primary tumors were harvested and RNA was collected. Transcriptional activities of 96 angiogenesis-related genes were assessed using gene microarrays.

c-Met = c-Met (Homo sapiens, UniProt P08581); experiment: Immunoprecipitation/Western blot of HGF-dependent c-Met and Gab1 phosphorylation and association in HEK293 cells; format: cell-based; set-up: host or cells: HEK293
Sequence of c-Met (P08581 308-1390 limits assumed): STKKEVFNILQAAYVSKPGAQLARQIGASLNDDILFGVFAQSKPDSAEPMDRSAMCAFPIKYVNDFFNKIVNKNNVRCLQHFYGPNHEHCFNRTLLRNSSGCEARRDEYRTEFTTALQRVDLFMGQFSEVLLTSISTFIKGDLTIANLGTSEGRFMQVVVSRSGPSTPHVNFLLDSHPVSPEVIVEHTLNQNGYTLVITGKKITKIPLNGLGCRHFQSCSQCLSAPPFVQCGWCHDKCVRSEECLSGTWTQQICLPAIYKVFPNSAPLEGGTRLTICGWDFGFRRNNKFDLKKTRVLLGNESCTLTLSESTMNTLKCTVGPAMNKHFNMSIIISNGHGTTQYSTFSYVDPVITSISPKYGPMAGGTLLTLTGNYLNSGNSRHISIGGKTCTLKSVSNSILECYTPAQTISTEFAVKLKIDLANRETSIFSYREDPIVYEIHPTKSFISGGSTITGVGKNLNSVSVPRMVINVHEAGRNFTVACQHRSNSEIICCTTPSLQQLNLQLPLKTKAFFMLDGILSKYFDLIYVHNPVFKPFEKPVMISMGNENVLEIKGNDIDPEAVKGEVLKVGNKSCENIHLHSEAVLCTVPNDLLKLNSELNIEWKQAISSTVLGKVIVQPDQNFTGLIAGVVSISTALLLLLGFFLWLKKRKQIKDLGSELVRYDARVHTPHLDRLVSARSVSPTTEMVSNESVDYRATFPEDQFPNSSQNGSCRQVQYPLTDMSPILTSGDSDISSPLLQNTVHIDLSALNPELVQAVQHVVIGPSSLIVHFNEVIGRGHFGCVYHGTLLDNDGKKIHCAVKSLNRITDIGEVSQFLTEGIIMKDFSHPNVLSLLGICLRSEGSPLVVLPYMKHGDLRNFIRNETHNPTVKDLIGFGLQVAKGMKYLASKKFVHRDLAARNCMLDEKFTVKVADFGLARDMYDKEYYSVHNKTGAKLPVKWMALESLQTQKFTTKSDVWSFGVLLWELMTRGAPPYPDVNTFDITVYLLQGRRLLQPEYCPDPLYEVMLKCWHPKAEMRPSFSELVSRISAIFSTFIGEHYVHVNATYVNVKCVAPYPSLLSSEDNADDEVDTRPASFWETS
Sequence of c-Met (P08581 25-307 limits assumed): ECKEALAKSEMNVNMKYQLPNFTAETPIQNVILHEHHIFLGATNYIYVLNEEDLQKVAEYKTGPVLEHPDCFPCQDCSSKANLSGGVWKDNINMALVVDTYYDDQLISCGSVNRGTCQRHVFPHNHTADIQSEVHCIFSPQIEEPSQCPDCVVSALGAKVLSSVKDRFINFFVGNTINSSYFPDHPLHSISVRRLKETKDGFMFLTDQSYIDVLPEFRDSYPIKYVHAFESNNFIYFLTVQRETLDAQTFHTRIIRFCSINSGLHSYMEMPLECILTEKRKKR
Description: (FIG. 5A) HEK293 cells were treated for 10 minutes with HGF at indicated concentrations. Lysates were immunoprecipitated (IP) with anti-c-Met antibody (DO-24) and immunoblotted (IB) with anti-c-Met or anti-phospho-tyrosine (06-427) antibody. (FIG. 5B) HEK293 cells were treated for 10 minutes with HGF and/or Norleual. Lysates were IP with anti-c-Met (DO-24) and IB with anti-c-Met (DQ-13) or anti-phospho-tyrosine (HAM 1676). (FIG. 5C) HEK293 lysates were IP with anti-c-Met (DO-24) and IB with anti-Gab1. (FIG. 5D) HEK 293 lysates were IP with anti-Gab1 and IB with anti-Gab1 or anti-phospho-tyrosine (HAM 1676). (FIGS. 5E, 5F, 5G) Relative amounts (normalized to % total c-Met in IP) of quantified IP/IB band intensities for control, 110 pM HGF-, 110 pM HGF and 20 pM Norleual-, and 20 pM Norleual-treated HEK293 cells for phospho-c-Met (FIG. 5E, n=4), phospho-Gab1 (FIG. 5F, n=4), and c-Met associated Gab1 (FIG. 5G, n=3). Error bars indicate ±SD.
HEK293 cells were treated for 10 minutes with HGF and/or Norleual at the indicated concentrations. Lysates were IP with anti-c-Met (DO-24, Millipore/Upstate, Billerica, Mass.) and IB with anti-c-Met (DQ-13, Millipore/Upstate) or anti-phosphotyrosine (HAM1676, lot JLB03, R&D Systems, Inc., Minneapolis, Minn.).
Immunoprecipitation and Western blotting. Cells were serum starved for two hours in DMEM before treatment. Cells were harvested using RIPA lysis buffer (Upstate Biotechnol. Inc., Lake Placid, N.Y.) with phosphatase inhibitor cocktails 1 and 2 (Sigma, St Louis, Mo., USA). Protein concentration was determined using the BCA assay (Pierce, Rockford, Ill., USA). Lysates were incubated with antibody overnight at 4° C. Immunoprecipitation controls received mouse non-specific Ig (Upstate). Proteins were captured with protein-A agarose (Upstate) and were washed with PBS. Proteins were resolved using SDS-PAGE electrophoresis (Criterion, BioRad, Hercules, Calif., USA), transferred to nitrocellulose, and incubated with appropriate antibodies. Proteins were visualized using the Supersignal West Pico Chemiluminescent Substrate system (Pierce). The film images were digitized and analyzed using TotalLab® software (AmershamPharmacia/GE HealthCare, Piscataway, N.J.).
Whether the interaction of Norleual with the c-Met receptor had functional consequences regarding c-Met signaling was next investigated by determining whether Norleual could alter the phosphorylation status of cellular protein tyrosine phosphate (FIG. 4) and more specifically, of c-Met (i.e., c-Met activation), and also whether Norleual could modulate Gab1 association with c-Met. Human embryonic kidney HEK293 cells were activated by HGF in the presence or absence of Norleual. Solubilized membranes were immunoprecipitated (IP) with an anti-c-Met antibody and immunoblotted (IB) for total c-Met, anti-phospho-tyrosine to detect the activated form of c-Met, and anti-Gab1 to detect c-Met/Gab1 association. […] To confirm these findings, treated HEK293 lysates were precipitated with anti-Gab1 and blotted for total Gab1 and phospho-Gab1, its activated form. Again, Norleual inhibited HGF-induced Gab1 phosphorylation (FIGS. 5D, […]).

**Q.** With “Nle-Tyr-Leu-ψ-His-Pro-Phe ([Nle]YLHPF; also: reduced peptide bond psi(CH2NH2) between Leu and His) [Norleual]” as the substance, how does the B16-F10 lung metastasis (B16-F10 melanoma cells) read?
**A.** The B16-F10 lung metastasis was “dramatically inhibited”.

**Q.** What about the “Change in gene expression versus control: Adamts 1, CD36, Connective tissue growth factor, PECAM 1, Cxcl 4, restin, Ccl 2, TNF-α, VEGF-α, VEGF-β” value [1] of the same substance?
**A.** The value was “at least five-fold”.

**Q.** What about the “HGF-initiated association between Gab1 and c-Met” value (c-Met; HEK293 cells) of the same substance?
**A.** Its value is “significantly reduced”.

**Q.** What about the “c-Met phosphorylation, compound applied alone” value (c-Met; HEK293 cells, 10 minutes, no HGF) of the same substance?
**A.** Its value is “did not alter”.

**Q.** What about the “HGF-dependent Gab1 phosphorylation (IP anti-c-Met)” value (c-Met; HEK293 cells, Norleual 20 pM, 110 pM HGF) of the same substance?
**A.** Its value is “significantly reduced”.

**Q.** And the “HGF-dependent c-Met phosphorylation” value (c-Met; HEK293 cells, Norleual 20 pM, 110 pM HGF, 10 minutes)?
**A.** Its value is “significantly reduced”.

**Q.** What about the “HGF-induced Gab1 phosphorylation (IP anti-Gab1)” value (c-Met; HEK293 lysates precipitated with anti-Gab1) of the same substance?
**A.** Its value is “inhibited”.
